# In the nanobody polyreactivity screen of Harvey et al. (2022):
# Assay: yeast display, Sf9 membrane polyspecificity reagent, FACS + sequencing; frameworks hold sequencing errors
# Summary of the method: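 A synthetic nanobody library was expressed on Saccharomyces cerevisiae BJ5465 by galactose induction for 36–48 hours. The library was stained for 1 hour at 4 °C with 10% biotinylated, detergent-solubilized Sf9 membrane reagent and enriched with streptavidin microbeads before FACS. Low and high (top ~1%) gates were set on anti-HA fluorescence for expression and streptavidin fluorescence for reagent binding, and each polyreactivity label reflects the gate of origin.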
row,Sequence,polyreactivity (PSR sort gate)
1,QVQLVESGGVLVQAGGSLRISSAASGRIFKVYAMGWYRQAPGKEREFVAVITGGGSTNYADSVKGRFTISRDNAKNTVYLQMNSLKPEDTGVYYCATEGYGHGGETDGGVYSDLGYWGQGTQVTVSS,low polyreactivity
2,QDQLVESGGGLVQAGGSLRLSCAPSGRTFGGYSMGWYRQAPGKERELVASNTSGGSTYYADSVKGRFTISRDNAKNTVYLQMNSLKPEDTAVYYCAAVTYFETSSRAIPSNDYWGQGTQVTVSS,low polyreactivity
3,QVQLVESGGGLVQAGGSLRLSCAASGFTFNRYAMGWYRQAPGKERELVAAISWSGTSTYYADSVKGRFTISRDNAKNTVYLQMNSLKPEDTAVYYCAARVKGQWNTYDYWGQGTQVTVSS,high polyreactivity
4,QVQLVESGGGLVQAGGSLRLSCAASGRTFNPNAMGWYRQAPGKERELVAAISSSGGSTYYADSVKGRFTISRDNAKNTVYLQMNSLKPEDTAVYYCAAVHKWYLYYYWGQGTQVTVSS,high polyreactivity
5,QVQLVESGGGLVQAGGSLRLSCAASGSIFVYNAMGWYRPAPGKERELVAGITLIGGSTYYADSVKGRFTISRDNAKNTVYLQMNSLKPEDTAVYYCAVLVVGSTTQDEPYFSGVEHDYWGQGTQVTVSS,low polyreactivity
6,QVQLVESGGGLGQAGGSLRLSCAASGRTFRLYAMGCYRQAPGKERELVASITSTGRTYYADSVKGRFTISRDNAKNTVYLQMNSLKPEDTAVYYCNAVALSNCEYDYWGQGTQVTVSS,high polyreactivity
7,QVQLVESGGGLVKAGGSLRLTCSASGSIFRRNALRCSRHAPGKERELDAAISSGGSTNYADSVKGRFTISRDNAKNTVYLQMISQKPEDSAVYYCNTRYFRRARKGDSWGQGTQVTVSS,high polyreactivity
8,QVHLVESVVCLVQAGGSLALSCASYGSIFRYYALGWYIQGTGKESELVAGITWGCRRTFYADSEKGRFTISRHNAKNTFYIQMNILKPEDTAVCYCAPRWFWKAYRFYYWGQGTQLTVSS,high polyreactivity
9,QVQLVESGGGLVQAGGSLRLSCAASGIILDPNAMGWSRQAPGKERELVAGITRSGVSTYYAESVKGRFTISRDNAKNTVYLKMNSLKPEDTAVYYCAKDRISGSKGEDDDYWGKGTQVTVSS,low polyreactivity
10,QVQLVESGGGLVQAGGSLRLSCAASGGIFPYYAMGLYRQAPGKERELVADISSGGSTYYEDSVKGRFTISRDNAKNTVYLQMNSLKPEDTAVYYCAAEDTLAGSVARFGEYDYWGQGTQVTVSS,low polyreactivity
11,QVQLVESGGGLVQAGGSLRLSCAASGFIFSRYFMGWYRQAPGKERELVAAISWNVGSTYYADSVKGRFTISRDNAKNTVYLQMNSLKPEDTAVYYCAARDRRSVTMDYWGHGTQVTVSS,high polyreactivity
12,QVQLQESGGGPVLAGGSLRLSCEASGTIFVRLDMGWYRQAPGKEREFVATIGSGSSTYYADSVKGSFTISRDNVKNTVYLQMNSLKPEETAVYYCAVSAAEQSRHYYWDQGTQVTVSS,low polyreactivity
13,QVQLVESGGGLVQAGGSLRLSCAASGRTFIINTMGWYRQAPGKERELVAAISKNGATTNYADSVKGRFTISRDNAKNTVYLQMNSLKPEDTAVYYCAKKASYWWGYEYWGQGTQVTVSS,low polyreactivity
14,QVQLVESGGGLVQAGGSLRLSCAASGSTFPGYAMGWYRQAPGKERELVAAGGSTYYADSVKGRFTISRDNAKNTVYLEMNCLKPEETAVYYCAATWGSVQKGTYYYWGQGTQVTVSS,low polyreactivity
15,QVQLVESGGGLVQAGGSLRLSCAASGSTFYGNAMGWYRQAPGKERELVGAIRWRGGRTYYADSVKGRFTISRDNANNTVYLQMNSLKPEDTAVYYCNALPGVSHTQYDRVGYWGQGTQVTVSS,high polyreactivity
16,QVQLVESGGGLVQAGGSLRLICDASGRIFPWYTMGWYRQAPGKERELVAAITSGGNKDYADSVKGRFTISRDYAKNTVFLQMNSLKPEDTAVYYCAAGPDPLGEDYWGQGTQVTVSS,low polyreactivity
17,QVQLVESGGGLVQAGGSLRLSCAASGRIFRYYAMGWYRQAPGKERELVAAISWSGGSTYYADSVKGRFTISRDNAKNTVYLQMNSLKPEDTAVYYCNAYIYRAVPYDYWGQGTQVTVSS,high polyreactivity
18,QVQLVESGGGLVQAGGSLRLSCAASGRILGDYAMGWYRQAPGKEREFVAAIDYNGGSTNYADSVKGRFTISRDNAKNTVYLQMNSLKPEDTAVYYCAAPGFPSRNGFGYWGQGTQVTVSS,low polyreactivity
19,QVQLVESGGGLVQAGGSLRLSCAASGRIFRPNAMGWNRQAPGKVRELVAAISSGGSTYYADSVKGRFTISRDNAKNTVYLQMNSLKPEDTAVYYCAARSRGYDIRYGYWGQGTQVTVSS,high polyreactivity
20,QVQLVESGGGLVQAGGSLRLSCAASGRTFNSYAMGWYRQAPGKEREFVASITFSTGRTYYADSVKGRFTISRDNAKNTVYLQMNSLKPEDTAVYYCNVRFVTGYRYRYGDDYWGQGTQVTVSS,low polyreactivity
21,QVQLVESGGGLVQAGGSLRLSCAASGSTFFPYAMGWYRQAPGKERELVAGISSDGGTSYADSVKGRFTISRDNAKNTVYLQMNSLKPEDTAVYYCAALQADRDRYPAFDLMDYWGQGTQVTVSS,low polyreactivity
22,QVQLVESGGGLVQAGGSLPLSCAASGRIFWDYDMGRYRQAHGKERELVAVITFSGDSTYYADSVKGRFTISRDNAKNTVYLQMNSLKPEDTAVYYCASARAIRQFWYVATFEYWGQGTQVTVSS,low polyreactivity

row,Sequence,polyreactivity (PSR sort gate)
1,QVQLVESGGGLVQEGGSLRLSCAASGGTFAYAMGWYRQAPGKERELVAAITWRGGDTYADSVKGRFTISRDNAKNTVYLQMNSLKPEDTAVYYCAAEFRDVSSNGYDYWGQGTQVTVSS,low polyreactivity
2,QVQLVESGGGLVQAGGSLRLSCAASGFIFANYAMGWYRQAPGKERELVAAISSGRITYYADSVKGRFTISRDNAKNTVYLQMNSLKPEDTAVYYCAADVLYQDRSGEYHHWDGDYWGQGTQVTVSS,low polyreactivity
3,QVQLVQSGGGLVQAGGSLRLICAASGSIFLYYAMGWYRQAPAKERELVAGIRRGGRKNYADSVKGRFTISRDNSKNTVYLQLNSLKPEDTGVYYCAKGGYWGQCTQVTVSS,high polyreactivity
4,QVQLVESGGGLVQAGGSLRLSCAASGRTFRRYAMGWYRQAPGKERELVAAITNRGASTYYADSVKGRFTISRDNAKNTVYLQMNSLKPEDTAVYFCNTDPVSGLVWKGTEYDYWGQGTQVTVSS,low polyreactivity
5,QVHLVESVGGLVQAGGSHRLSCAASGRTLGFYAMGWYRQAPGKERELVAAINWSGGSTYYADSVKGRFTISRDNAKNTVYLQMNSLKPEDTAVYNCGVGTNYYDYWGQGTQVTVSS,high polyreactivity
6,QVQLVESGGGLVQAGGSLRLSCAASGYIFQDYAMGWYRPAPGKERELVAAITSGGSTYYADSVKGRFTISRDNAKNTVYLQMNSLKPEDTAVYYCAAVGYYSVPGYSSRRYYYWGQGTQVTVSS,high polyreactivity
7,QVQLVESGGGLVQAGGSLRLSCAASGYIFQYYAKGWYRQAPGKERELVAAITGGGSTKYADSVKGRFTISRDNAKHTVYLQMNSLKPEDTAVYYCAKRYPSWFNYWGQGTQVTVSS,high polyreactivity
8,QVQLVESGGGLVQAGGSLRLSCAASGSIFKKYAMGWYRQAPGKERELVAAIRSSGGSTYYADSVKGRFTISRDNAKNTVYLQMNSLKPEDTAVYYCAAYVPQGYKLYYWGQGTQVSVSS,high polyreactivity
9,QVQLVESGGGLVQAGGSLRLSCAASGRNPMGWYRQAPGKDRELVASISRTGGSTYYADSVKGRFTISRDNAKNTDYLQMNSLKPEDTAVYYCNYFRRPPMYYWGQGTQVTVSS,high polyreactivity
10,QVQLVESGGGLVQAGGSLRLSCAASGRTCSRYAMGLYRQAPGKERELFAAISKSSGTTSYADSVKGRFSISRDNAKNTVYLQMIRLNPEDTAVYYFAAGITGRYYGVRFSEDYWGQGTQVTVSS,high polyreactivity
11,QVQLVDSGGGLVQAGGSLRLSCAASGSTFRGNAMGWSRQAPGKERELVAAISASGGRTYYADSVKGRFTISRDNAKNTVYLQMNSLKPEETAVYYCAVRDQTDKVPFYYWGQGTQVSVSS,high polyreactivity
12,QVQLVESGGGLVQAGGSLRLRCAASGSIFGGNAMGWYRQAPGKEREMVATITDRGSSTYYADSVKGRFTISRDNAKNTGYLQMNSLKPEDTAVYYCATAFPDVPEHDYWGQGTQVTVSS,low polyreactivity
13,QVQLVESGGGLVQAGGSLRISCAASGSTFGVNARGWYRQAPGKERELVAGITWTGGSTYYADSVKGRFTISRDNAKNTVYVQMNSLKPEDTAVYFCAKAWYSSYYDDSEDSWGQGTQVTVSS,low polyreactivity
14,QVQLVESGGGLVQAGGSLRLSCAASGSTLFLYAMGWYRQAPGKERELVAAITWSGGSTYYADSVKGRFTISRDNAKNTVYLQMNSLKPEDTAVYYCAKYGRYFWNSGVDYWGQGTQVTVSS,high polyreactivity
15,QVQLVESGGGLVQAGGSLRLSCAASGLTFRYNAMGWYRQAPGKERELVARISRNGGRTYYADSVKGRFTISRDNAKNTVYLQMNSLKPEDTAVYYCNVVYFVTTSPCYDYWGQGTQVTVSS,high polyreactivity
16,QVQLVESGGGLVQAGGSLRLSCAASGFIFTYYAMGWYRQAPGKERELVASITISGGSTYYADSVKGRFTISRDNAKNTVYLQMNSLKPEDTAVYYCNVVPWYYGYDYWGQGTQVTVSS,high polyreactivity
17,QVQLVESGGGLVQAGGSLRLSCAASGSIFYPYTMGWYRQAPGKEREFVAAITGGGGRTYYADSVKGRFTISRDNAKNTVYLQMNSLKPEDTAVYYCATDTYDVNVWELGMDYWGQGTQVTVSS,low polyreactivity
18,QVQLVESAGGLVQAGGSLRLSCAASGLTFYLYVMGWSRQATGKERELVAAISRRGGTTYYADSVKGRFTISRDNAKNTVYLQMNSLKPEDTAVYYCNKADAVGRDYDYWGQGTQVTVSS,high polyreactivity
19,QVQLVESGGGLVQAGGSLRLSCAASGSTFTDYDMGWYRQAPGKERELVAAISSGGSTYYADSVKGRFTISRDNAKNTVYLQMNSLKPEDTAVYYCAAVLGVWGGVGSEGDYWGQGTQVTVSS,low polyreactivity
20,QVQLVESGGGLVQAGGSLRLSCAASGSTFAGYVMGWYRQAPGKERELVAGISYRGGRTYYADSVKGRFTISRDNAKNTVYLQMNSLKPEDTAVYYCAAENAVTGTDGEYYYWGQGTQVTVSS,high polyreactivity
21,QVQIVESGGGLVQAGGSLRLSCAASGTTFDAYAMGWYRQAPGKERELVAAITNAGSTNYADSVKGRFTISRDNAKNTVYLQMNSLKPEETAVYYCATDWYHRYLDGRYDYWGQGTQETVSS,low polyreactivity
